Data reported in patent US20200297834A1.

Tests used:
[1] = biological target: VEEV E2 (of VEEV TC-83, in infected Vero cells) (Venezuelan equine encephalitis virus, strain TC-83) (UniProt P05674); test: confocal microscopy, line scan of z-stack, VEEV TC-83 infected Vero cells, 16 h
[2] = biological target: VEEV capsid (of VEEV TC-83, in infected Vero cells) (Venezuelan equine encephalitis virus, strain TC-83) (UniProt P05674); test: as above

Substance PKCδ (endogenous, Vero cells) (enzyme) has a Pearson's correlation (co-localization) [1] of 0.581.

With PKCδ (endogenous, Vero cells) the Pearson's correlation (co-localization) [2] was 0.771.
